The source of these data is article PMC6212786 (Nucleic Acids Research, 2018).

T1: Full-length wild-type T4 DNA ligase (gp30) (bacteriophage T4, UniProt P00970 1-487)
T1 sequence (looked up): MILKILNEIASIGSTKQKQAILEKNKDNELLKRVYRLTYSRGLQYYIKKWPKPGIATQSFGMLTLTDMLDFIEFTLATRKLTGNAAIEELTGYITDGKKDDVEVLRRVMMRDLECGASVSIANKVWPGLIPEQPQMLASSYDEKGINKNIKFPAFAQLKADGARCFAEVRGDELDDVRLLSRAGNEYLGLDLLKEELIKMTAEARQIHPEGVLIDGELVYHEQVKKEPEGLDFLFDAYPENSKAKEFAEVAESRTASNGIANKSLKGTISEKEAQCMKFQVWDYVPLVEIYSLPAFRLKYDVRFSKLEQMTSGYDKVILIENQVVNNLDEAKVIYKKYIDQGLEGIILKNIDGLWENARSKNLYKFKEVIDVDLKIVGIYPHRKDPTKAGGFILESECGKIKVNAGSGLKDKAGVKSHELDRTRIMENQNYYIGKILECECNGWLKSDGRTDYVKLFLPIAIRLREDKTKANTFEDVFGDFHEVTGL

B1: T4 sliding clamp gp45, full length (trimer) (natural protein, bacteriophage T4, UniProt P04525 1-228, looked up)
chain: MKLSKDTTALLKNFATINSGIMLKSGQFIMTRAVNGTTYAEANISDVIDFDVAIYDLNGFLGILSLVNDDAEISQSEDGNIKIADARSTIFWPAADPSTVVAPNKPIPFPVASAVTEIKAEDLQQLLRVSRGLQIDTIAITVKEGKIVINGFNKVEDSALTRVKYSLTLGDYDGENTFNFIINMANMKMQPGNYKLLLWAKGKQGAAKFEGEHANYVVALEADSTHDF

Test [1] has as its target B1. Put plainly: ITC. In general terms: ITC needs no label: the signal is the heat of the interaction.
Test [2] has as its target T1, Full-length wild-type T4 DNA ligase …. Put plainly: SEC. A general note: In gel filtration, larger molecules generally elute earlier.

With KKEPEGLDFLFDA [T4 ligase loop peptide KKEPEGLDFLFDA], in test [1], the dissociation constant (Kd) worked out at 10.7 µM and the “stoichiometry N” value was 3 peptides per gp45 trimer.
With B1, the binding result in test [2] is “binds”.

As a reminder, the Kd is the constant that tells how readily two partners part at equilibrium. By stoichiometry N is commonly meant the number of molecules, sites or subunits per partner or assembly.
